Drawing on article PMC5797668, this text covers fold increase of basal net BRET (against the A87V base mutant) for 1 substance.

The assay deals with HA-M2R-RLuc8 (M2 muscarinic receptor) (UniProt P08172). Nature of the assay: FRET or BRET.
UniProt P08172, sequence (P08172 whole entry): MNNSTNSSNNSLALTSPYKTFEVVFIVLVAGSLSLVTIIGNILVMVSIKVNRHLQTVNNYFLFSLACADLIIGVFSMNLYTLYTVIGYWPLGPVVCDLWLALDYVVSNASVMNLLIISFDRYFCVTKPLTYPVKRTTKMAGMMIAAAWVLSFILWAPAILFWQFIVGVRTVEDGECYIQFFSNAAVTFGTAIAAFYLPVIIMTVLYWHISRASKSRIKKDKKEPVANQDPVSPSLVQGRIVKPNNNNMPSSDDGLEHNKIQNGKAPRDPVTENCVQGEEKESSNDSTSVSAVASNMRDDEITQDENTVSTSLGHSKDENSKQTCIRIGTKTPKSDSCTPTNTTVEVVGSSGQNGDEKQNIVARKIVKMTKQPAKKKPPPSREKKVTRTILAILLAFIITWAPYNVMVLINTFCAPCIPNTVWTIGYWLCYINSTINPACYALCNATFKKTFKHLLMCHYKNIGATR

On to “Venus-arrestin-3-Lys139Ile (on the Ala87Val base mutant) (natural protein)”, for which the fold increase of basal net BRET (against the A87V base mutant) was greater than 3 fold.
